B1: SNAP91 (parent)
chain: FSTDAFSSPPQGASPVPESSLTAD

Variants of: B1
Test: protein stability index of a GFP-peptide fusion (GPS, HEK-293T) (PSI 1-6); higher = more stable
Details: c terminus: a fixed tail appended
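Note: lentivirally expressed fusions sorted by FACS into six bins by GFP to DsRed ratio, PSI derived from sequencing read proportions per bin multiplied by bin number.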

Q: Which protein stability index does the source give for FSTDAESSPPQGASPVPESSLTAD [F6E] here?
A: 5.69

Q: For FSTDAHSSPPQGASPVPESSLTAD [F6H], which protein stability index is on record?
A: 5.62

Q: With FSTDAISSPPQGASPVPESSLTAD [F6I] as the variant, how does the protein stability index read?
A: 5.43

Q: For FSTDADSSPPQGASPVPESSLTAD [F6D], which protein stability index is on record?
A: 5.44

Q: With FSTDACSSPPQGASPVPESSLTAD [F6C] as the variant, how does the protein stability index read?
A: 5.09

Q: Which protein stability index does the source give for FSTDAPSSPPQGASPVPESSLTAD [F6P] here?
A: 5.53

Q: For FSTDAKSSPPQGASPVPESSLTAD [F6K], which protein stability index is on record?
A: 5.38

Q: Which protein stability index does the source give for FSTDAASSPPQGASPVPESSLTAD [F6A] here?
A: 5.57

Q: Which protein stability index does the source give for FSTDAWSSPPQGASPVPESSLTAD [F6W] here?
A: 1.86

Q: Which protein stability index does the source give for FSTDATSSPPQGASPVPESSLTAD [F6T] here?
A: 5.61

Q: Which protein stability index does the source give for FSTDASSSPPQGASPVPESSLTAD [F6S] here?
A: 5.44

Q: With FSTDANSSPPQGASPVPESSLTAD [F6N] as the variant, how does the protein stability index read?
A: 5.31

Q: With FSTDAMSSPPQGASPVPESSLTAD [F6M] as the variant, how does the protein stability index read?
A: 5.53

Q: For FSTDALSSPPQGASPVPESSLTAD [F6L], which protein stability index is on record?
A: 5.55

Q: With FSTDARSSPPQGASPVPESSLTAD [F6R] as the variant, how does the protein stability index read?
A: 5.49

Q: With FSTDAGSSPPQGASPVPESSLTAD [F6G] as the variant, how does the protein stability index read?
A: 5.48

Q: For FSTDAQSSPPQGASPVPESSLTAD [F6Q], which protein stability index is on record?
A: 5.63

Q: With FSTDAYSSPPQGASPVPESSLTAD [F6Y] as the variant, how does the protein stability index read?
A: 3.26

Q: For FSTDAVSSPPQGASPVPESSLTAD [F6V], which protein stability index is on record?
A: 5.59

Q: For FSTDAFSSPPQGASQVPESSLTAD [P15Q], which protein stability index is on record?
A: 3.17

Q: Which protein stability index does the source give for FSTDAFSSPPQGASAVPESSLTAD [P15A] here?
A: 3.25

Q: For FSTDAFSSPPQGASKVPESSLTAD [P15K], which protein stability index is on record?
A: 2.43

Q: For FSTDAFSSPPQGASIVPESSLTAD [P15I], which protein stability index is on record?
A: 2.67

Q: For FSTDAFSSPPQGASGVPESSLTAD [P15G], which protein stability index is on record?
A: 2.83

Q: For FSTDAFSSPPQGASFVPESSLTAD [P15F], which protein stability index is on record?
A: 2.57

Q: With FSTDAFSSPPQGASNVPESSLTAD [P15N] as the variant, how does the protein stability index read?
A: 3.12

Q: For FSTDAFSSPPQGASDVPESSLTAD [P15D], which protein stability index is on record?
A: 3.27

Q: Which protein stability index does the source give for FSTDAFSSPPQGASMVPESSLTAD [P15M] here?
A: 2.72

Q: With FSTDAFSSPPQGASHVPESSLTAD [P15H] as the variant, how does the protein stability index read?
A: 3.5

Q: Which protein stability index does the source give for FSTDAFSSPPQGASEVPESSLTAD [P15E] here?
A: 3.6

Q: For FSTDAFSSPPQGASRVPESSLTAD [P15R], which protein stability index is on record?
A: 2.97

Q: With FSTDAFSSPPQGASLVPESSLTAD [P15L] as the variant, how does the protein stability index read?
A: 2.64

Q: Which protein stability index does the source give for FSTDAFSSPPQGASCVPESSLTAD [P15C] here?
A: 2.78

Q: For FSTDAFSTPPQGASPVPESSLTAD [S8T], which protein stability index is on record?
A: 3.33

Q: With FSTDAFSIPPQGASPVPESSLTAD [S8I] as the variant, how does the protein stability index read?
A: 2.62

Q: For FSTDAFSAPPQGASPVPESSLTAD [S8A], which protein stability index is on record?
A: 3.31

Q: Which protein stability index does the source give for FSTDAFSFPPQGASPVPESSLTAD [S8F] here?
A: 3.22

Q: Which protein stability index does the source give for FSTDAFSNPPQGASPVPESSLTAD [S8N] here?
A: 2.75

Q: Which protein stability index does the source give for FSTDAFSVPPQGASPVPESSLTAD [S8V] here?
A: 3.16

Q: For FSTDAFSRPPQGASPVPESSLTAD [S8R], which protein stability index is on record?
A: 2.87

Q: For FSTDAFSEPPQGASPVPESSLTAD [S8E], which protein stability index is on record?
A: 4.58

Q: For FSTDAFSLPPQGASPVPESSLTAD [S8L], which protein stability index is on record?
A: 3.29

Q: With FSTDAFSYPPQGASPVPESSLTAD [S8Y] as the variant, how does the protein stability index read?
A: 3.39

Q: Which protein stability index does the source give for FSTDAFSHPPQGASPVPESSLTAD [S8H] here?
A: 2.75

Q: With FSTDAFSPPPQGASPVPESSLTAD [S8P] as the variant, how does the protein stability index read?
A: 4

Q: With FSTDAFSDPPQGASPVPESSLTAD [S8D] as the variant, how does the protein stability index read?
A: 4.93

Q: For FSTDAFSQPPQGASPVPESSLTAD [S8Q], which protein stability index is on record?
A: 2.86

Q: For FSTDAFSMPPQGASPVPESSLTAD [S8M], which protein stability index is on record?
A: 3.02

Q: With FSTDAFSCPPQGASPVPESSLTAD [S8C] as the variant, how does the protein stability index read?
A: 2.75

Q: With FSTDAFSKPPQGASPVPESSLTAD [S8K] as the variant, how does the protein stability index read?
A: 2.38

Q: For FSTDAFSWPPQGASPVPESSLTAD [S8W], which protein stability index is on record?
A: 3.44

Q: Which protein stability index does the source give for FSTDAFSGPPQGASPVPESSLTAD [S8G] here?
A: 3.67

Q: With FSTDAFSSPPYGASPVPESSLTAD [Q11Y] as the variant, how does the protein stability index read?
A: 2.22

Q: With FSTDAFSSPPDGASPVPESSLTAD [Q11D] as the variant, how does the protein stability index read?
A: 4.01

Q: Which protein stability index does the source give for FSTDAFSSPPIGASPVPESSLTAD [Q11I] here?
A: 3.25

Q: For FSTDAFSSPPEGASPVPESSLTAD [Q11E], which protein stability index is on record?
A: 3.9

Q: Which protein stability index does the source give for FSTDAFSSPPWGASPVPESSLTAD [Q11W] here?
A: 2.2

Q: For FSTDAFSSPPRGASPVPESSLTAD [Q11R], which protein stability index is on record?
A: 3.06

Q: With FSTDAFSSPPNGASPVPESSLTAD [Q11N] as the variant, how does the protein stability index read?
A: 3.13

Q: For FSTDAFSSPPAGASPVPESSLTAD [Q11A], which protein stability index is on record?
A: 3.33

Q: With FSTDAFSSPPMGASPVPESSLTAD [Q11M] as the variant, how does the protein stability index read?
A: 2.69

Q: Which protein stability index does the source give for FSTDAFSSPPCGASPVPESSLTAD [Q11C] here?
A: 2.56

Q: With FSTDAFSSPPGGASPVPESSLTAD [Q11G] as the variant, how does the protein stability index read?
A: 3.34

Q: For FSTDAFSSPPVGASPVPESSLTAD [Q11V], which protein stability index is on record?
A: 2.88

Q: With FSTDAFSSPPFGASPVPESSLTAD [Q11F] as the variant, how does the protein stability index read?
A: 2.68

Q: For FSTDAFSSPPLGASPVPESSLTAD [Q11L], which protein stability index is on record?
A: 2.74

Q: Which protein stability index does the source give for FSTDAFSSPPSGASPVPESSLTAD [Q11S] here?
A: 4.17

Q: With FSTDAFSSPPKGASPVPESSLTAD [Q11K] as the variant, how does the protein stability index read?
A: 2.68

Q: With FSTDAFSSPPPGASPVPESSLTAD [Q11P] as the variant, how does the protein stability index read?
A: 3.27

Q: For FSTDAFSSPPHGASPVPESSLTAD [Q11H], which protein stability index is on record?
A: 3.43

Q: With FSTDAFSSPPTGASPVPESSLTAD [Q11T] as the variant, how does the protein stability index read?
A: 3.75

Q: For FSTDAFSSDPQGASPVPESSLTAD [P9D], which protein stability index is on record?
A: 3.96

Q: With FSTDAFSSKPQGASPVPESSLTAD [P9K] as the variant, how does the protein stability index read?
A: 2.92

Q: With FSTDAFSSEPQGASPVPESSLTAD [P9E] as the variant, how does the protein stability index read?
A: 4.35

Q: With FSTDAFSSFPQGASPVPESSLTAD [P9F] as the variant, how does the protein stability index read?
A: 2.46

Q: With FSTDAFSSGPQGASPVPESSLTAD [P9G] as the variant, how does the protein stability index read?
A: 2.76

Q: With FSTDAFSSTPQGASPVPESSLTAD [P9T] as the variant, how does the protein stability index read?
A: 2.85

Q: With FSTDAFSSWPQGASPVPESSLTAD [P9W] as the variant, how does the protein stability index read?
A: 2.24

Q: With FSTDAFSSIPQGASPVPESSLTAD [P9I] as the variant, how does the protein stability index read?
A: 2.43

Q: With FSTDAFSSAPQGASPVPESSLTAD [P9A] as the variant, how does the protein stability index read?
A: 2.52

Q: Which protein stability index does the source give for FSTDAFSSVPQGASPVPESSLTAD [P9V] here?
A: 2.74

Q: Which protein stability index does the source give for FSTDAFSSSPQGASPVPESSLTAD [P9S] here?
A: 3.74

Q: For FSTDAFSSNPQGASPVPESSLTAD [P9N], which protein stability index is on record?
A: 3.13

Q: For FSTDAFSSCPQGASPVPESSLTAD [P9C], which protein stability index is on record?
A: 2.61

Q: Which protein stability index does the source give for FSTDAFSSMPQGASPVPESSLTAD [P9M] here?
A: 2.16

Q: With FSTDAFSSLPQGASPVPESSLTAD [P9L] as the variant, how does the protein stability index read?
A: 2.65

Q: With FSTDAFSSRPQGASPVPESSLTAD [P9R] as the variant, how does the protein stability index read?
A: 2.91

Q: With FSTDAFSSQPQGASPVPESSLTAD [P9Q] as the variant, how does the protein stability index read?
A: 3.02

Q: Which protein stability index does the source give for FSTDAFSSHPQGASPVPESSLTAD [P9H] here?
A: 2.89

Q: With FSTDAFSSYPQGASPVPESSLTAD [P9Y] as the variant, how does the protein stability index read?
A: 2.45

Q: Which protein stability index does the source give for FSTDTFSSPPQGASPVPESSLTAD [A5T] here?
A: 4.96

Q: For FSTDVFSSPPQGASPVPESSLTAD [A5V], which protein stability index is on record?
A: 4.18

Q: Which protein stability index does the source give for FSTDYFSSPPQGASPVPESSLTAD [A5Y] here?
A: 2.33

Q: For FSTDWFSSPPQGASPVPESSLTAD [A5W], which protein stability index is on record?
A: 1.92
